Data from US20020022718A1, “Genes identified as required for proliferation of E. coli” (priority 1999, published 2002).

System: Klebsiella pneumoniae
Experiment: Growth inhibition by induced E. coli antisense RNA in Klebsiella pneumoniae
Assay type: cell-based
Parameters: key: +: a positive in Table V below means that at least 10 fold more cells were required to observe a colony on the induced plate than on the non-induced plate; −: If there was no effect of antisense RNA expression in a microorganism, the clone is minus in Table V below
Conditions: antisense RNA expression induced with IPTG, serial dilution plating
Procedure, shortened: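 Overnight cultures were diluted 10^2 to 10^8-fold and spotted on selective plates with or without 1 mM IPTG to induce antisense RNA from transformed E. coli sequences. After overnight growth, induced vs uninduced was scored as the log difference in the highest dilution giving colonies. No effect scores 0 (or minus); a positive score means at least 10-fold more cells were needed.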

B1: EcXA165: antisense clone insert to E. coli ybeJ (nucleic acid, listed as Escherichia coli)
antisense: ACTTATCAAACCATTTTTCCGCTTCACCGGAGGTCTGCACCTGAGCGATGGTGTCATCCATCAGCTTTTTGA
Sensitivity of K. pneumoniae to antisense nucleic acid (growth inhibition, induced vs. uninduced): −

B2: EcXA171: antisense clone insert to E. coli b0876 (nucleic acid, listed as Escherichia coli)
antisense: AGCGCCGGTAACGCCCGTTAAATGTTCTCGTTCGGCTTCCCGATCGTTATTCAACAGGCTGCGTACCGTAGCGGCATATTTCTTCCCTGCTTCATCGCCATC
Sensitivity of K. pneumoniae to antisense nucleic acid (growth inhibition, induced vs. uninduced): −

B3: EcXA183: antisense clone insert to E. coli ftsI (nucleic acid, listed as Escherichia coli)
antisense: GTTAGTAAAGCCGATGAGGTGAGCAGTCACTTCGCCGGACGGATAGTAACGGCGAGACTCTTCACGCAGATGAATCCCCGGCAGTTTCAGTTTTTTGATGTAGTCCGCCATGTCAGGGTTCACCTGACGCGCCAGATAAATAAAGCGCCCTTTCGGGTTGGCGTTAATGCGGGCTGAAAGCTGATCCAG
Sensitivity of K. pneumoniae to antisense nucleic acid (growth inhibition, induced vs. uninduced): −

B4: EcXA182: antisense clone insert to E. coli tktA (nucleic acid, listed as Escherichia coli)
antisense: TCGCGAACACCGTAGTGGATGTAGTTACCCGCAGCATCTTCGTTGATTGCTTTAGAACCAGACCACAGGGTCAGGTTAGACGGCGCCAGGTCAGCAGAACCGCCGAGGAATTCCGGCAACAGCGGACCGAACGCTTCGAT
Sensitivity of K. pneumoniae to antisense nucleic acid (growth inhibition, induced vs. uninduced): −

B5: EcXA179: antisense clone insert to E. coli valV (nucleic acid, listed as Escherichia coli)
antisense: CGAACCAACGACCCCCACCATGTCAAGGTGGTGCTCTAACCAACTGAGCTATGAACGCAACGTTGTAGGTGACAACGGGGACGAATATTAGCGGCAGAGTGGGAAGGTGGCAAGAGGCAAAACGTAATTTTCTGCGCTATTTCGACCGTTTGCAGAGCTTTTAAGCAAATTGGCTATATTTTGTTGATTTGCAAGGGTGATTTTTATTCAGGATCGCATTTACATCTGATACAACCC
Sensitivity of K. pneumoniae to antisense nucleic acid (growth inhibition, induced vs. uninduced): −

B6: EcXA178: antisense clone insert to E. coli rpsT (nucleic acid, listed as Escherichia coli)
antisense: CTGGAGATTGAGTAGATATTCTTGTTCAGAATGTATCAGCCCGATGGTTCTACGATTCTTAAGCCACGAAGAGTTCAGATAGTACAACGGCATGTCTCTTTTGACTATCTGGCAACCCGGCAGTGTGTTCTCTCACGCATCACAAAAGCAGCAGGCATAAAAAAACCCGCTTGCGCGGCTTTTTCACAAAGCTTCAGCAAATTGGCGATTAAGCCAGTTTGTTGATCTGTGCAGTCAGGTTAGCCTTATGACGTGCAGCTTTGTTTTTGTGGATCAAACCTTTAGCAGCCTGACGGTCCACGATCGGTTGCATTTCGTT
Sensitivity of K. pneumoniae to antisense nucleic acid (growth inhibition, induced vs. uninduced): −

B7: EcXA166: antisense clone insert to E. coli yihE (nucleic acid, listed as Escherichia coli)
antisense: AAACGCATGGCGCGTAAAGGTTCAATCAGTCCGATTTCAGCGGTGTCGAACTCGCTAAATTCTTCA
Sensitivity of K. pneumoniae to antisense nucleic acid (growth inhibition, induced vs. uninduced): −

B8: EcXA175: antisense clone insert to E. coli pykA (nucleic acid, listed as Escherichia coli)
antisense: TAGCTTCTTCCACATTGTCGAACTGAACGTCCAGACGGTGTTTAGAAACGTTGATGCTCGGGATTTTTTCCGCACCCAGGCAAACGCGCGCCATGGCTGCAACGGTTTCTGACGGATACTG
Sensitivity of K. pneumoniae to antisense nucleic acid (growth inhibition, induced vs. uninduced): −

B9: EcXA180: antisense clone insert to E. coli yjcF (nucleic acid, listed as Escherichia coli)
antisense: TGTGACAGAGTGGTTATCGTTAATCAGGCAAAGAGGGAAAAACATATTATTTAAACCATTATAGCGCATAAAATATCCTTATAATTAACAAGAAAGAAAAGGCATATTCTCTGCATTATCATTTTCTACGACTGTCAAAAATCGCTCATTTTTTAATGAGTTTATTTGTTTAATATTATGGGAAAAGGTGATGCATTTGGGAGAGGAAGAGTATTCCCCGGTCAGACGACCGGGGAAGGGG
Sensitivity of K. pneumoniae to antisense nucleic acid (growth inhibition, induced vs. uninduced): −

B10: EcXA181: antisense clone insert to E. coli ppc (nucleic acid, listed as Escherichia coli)
antisense: CCCGGCTGGGTTTTTTCAAGTTTACGCAGGGGTGCGGGCGATCACTTCCGGGTTGCTGGCAGCTTCGCCTTTCGGCGAAATGCTGTGGT
Sensitivity of K. pneumoniae to antisense nucleic acid (growth inhibition, induced vs. uninduced): −

B11: EcXA167: antisense clone insert to E. coli gatB (nucleic acid, listed as Escherichia coli)
antisense: TATAGGGGNCTATTTCATTAACCCGACACTGGATTAATTCAACAGGAATATTATGATTCTGACACAACTCTTTAATTTCTTCCGCCGCCATCGTAGAGGTCGCAACCGCGCCTCCGCAAGCGACAATAATCTTGCGTTTCATA
modifications: misc_feature (1)...(143): n = A,T,C or G
notes: antisense clone insert to E. coli gatB
Sensitivity of K. pneumoniae to antisense nucleic acid (growth inhibition, induced vs. uninduced): −

B12: EcXA174: antisense clone insert to E. coli endA (nucleic acid, listed as Escherichia coli)
antisense: GCCNGGCGGGAACCGACATGTTCCCACTCTACGCCGGCTGGCGCGGTTTTCATTTTTGCGCACCTGATAGCCGCACGATTGCAGATCAACAACGCCTTTTTTG
Sensitivity of K. pneumoniae to antisense nucleic acid (growth inhibition, induced vs. uninduced): −

B13: EcXA164: antisense clone insert to E. coli glpC (nucleic acid, listed as Escherichia coli)
antisense: TGTCGACATTCAGCACTTCCGGGTATTCGTCGCGCAGGGCAAATGTACAGGTTGAGGAGGTG
Sensitivity of K. pneumoniae to antisense nucleic acid (growth inhibition, induced vs. uninduced): −

B14: EcXA173: antisense clone insert to E. coli yhhJ (nucleic acid, listed as Escherichia coli)
antisense: GCCACGCCCAGCATAAACAGCGGGATCGAGCCTTCAATCGGTACGCCCAGTACACCTTTCACCATCAGCACCAGCGATAATCC
Sensitivity of K. pneumoniae to antisense nucleic acid (growth inhibition, induced vs. uninduced): −

B15: EcXA159: antisense clone insert to E. coli b0482 (nucleic acid, listed as Escherichia coli)
antisense: AAAAAATGAAATTCCTCTTTGACGGGCCAATAGCGATATTGGCCATTTTTTTAGCGCAACATTTGCGGCAAATTCCCTTCTCCATACAGGTGTAGTGCACCGACCGCGACCACATATCGCCCCGGCGGCATGGCGCGTAATTTATCCCGCCAGGCGAGATTTCGCTGATGCATCAGCACATCGTACAGCGACTGACTGAACGTATTGGGCAGCGTTATATCATTATTTTGCGGCGGTGCATTCAGCCACCAGCTCATCATTTGTTGCAGCAACCGTGCGTTGGTATGCCAGTGGGTCAGCGTATCGTCCAGCAGCGCCAGTCCTTTGTCAGGGAGCTGGAGCAACATGGCAATCTGGTTTTCAGCCCCTTCCAGTTCAATCACGGGTTTATGTTGTTGCTTC
Sensitivity of K. pneumoniae to antisense nucleic acid (growth inhibition, induced vs. uninduced): −

B16: EcXA163: antisense clone insert to E. coli yidC (nucleic acid, listed as Escherichia coli)
antisense: GAAGAGATGTTCAGGTTTTCGTTATCGGCAATGGTATCGAACTTGTATTTCTCATACTTCTCGTCAGGCGTGGAGTACGCCGCGCCACGGAA
Sensitivity of K. pneumoniae to antisense nucleic acid (growth inhibition, induced vs. uninduced): −

B17: EcXA162: antisense clone insert to E. coli yjgV (nucleic acid, listed as Escherichia coli)
antisense: AAAGGTTCGGCAAAAGCCATAACCTTTTCGTCAGCTTTGGCCGGATAAGGGACACATTGCGACGTTTCGACCATTTTATAACGGGTAAAACCACCATCAACATGAGGGAAATACATGGCACTGCCAAAAAAACGCATATCTGTACACTGATTCTCGTTATGTTCAATGCAGTATTTGCAGTGACCGCACGGTTTAGACGGATTAATGGCTACCGTTTGCCCTTCATGTAATTCTGA
Sensitivity of K. pneumoniae to antisense nucleic acid (growth inhibition, induced vs. uninduced): −

B18: EcXA168: antisense clone insert to E. coli b1721 (nucleic acid, listed as Escherichia coli)
antisense: GAGGAACCGTGTGACACACAAAGGGTGATTATTTTCCATTGCGGCGTATAATCCTGGCTCACCATCATGTATTTTCATGGCTAAAATACTCATCACCAGTTTTTTGTTTAAAAGCTCTTGTGCTATTGGAGTGGTTAATGCATTCAGAAAGATATCGATTATTTCATCGAATCCATACAACATGGAGATATAAAGTCCAGGTGTTTCGTT
Sensitivity of K. pneumoniae to antisense nucleic acid (growth inhibition, induced vs. uninduced): −

B19: EcXA169: antisense clone insert to E. coli rpsE (nucleic acid, listed as Escherichia coli)
antisense: AGAGCTGTGAAGGAGAAAATACGACCACCTTTAACGGTTTTAGATACGCGGTTTACCGCGATCAGCTTTTCCTGCAGTTCGCCAGCTTGTTTTTCGATGTGAGCCATCTTACACCTCT
Sensitivity of K. pneumoniae to antisense nucleic acid (growth inhibition, induced vs. uninduced): −

B20: EcXA176: antisense clone insert to E. coli yjdH (nucleic acid, listed as Escherichia coli)
antisense: TAGTTATTGGCTGTTTTGAGAATGTAATCTTCCAACTGCTTATAACTCTTCAGATGCAATAATCCGAGAATCACATGCAATTTATTCATAAATTCGTGGGATCGTTCACGAAGTGCGTCAGCATAGTTGACCAGACCGTCGAGTCGCTGCATCAGTTTACGTA
Sensitivity of K. pneumoniae to antisense nucleic acid (growth inhibition, induced vs. uninduced): −

B21: EcXA184: antisense clone insert to E. coli cysC (nucleic acid, listed as Escherichia coli)
antisense: GCAGTTCACCGGCACGCGCTTTCTTATATAAGCCTTTGGGATCGCGGGCTTCGCAAATCGCCAGCGGCGTATCGACAAACACTTCGATAAAGCGCCCTTCTCCTACGCGTTCGCGAACCATCTGGCGTTCGGCGCGGTGTGGCGAGATAAATGCGGTCAGCACCACCAGTCCGGCTTCAACCATCAAATTCGCCACTTCACCGACGCGACGGATATTCTCTTTACGATCGGCATCGCTAAAACCGAGATCGCTGCATAATCCGTGGCGAACATTGTCGCCATCCAGCAGATACGTACTGACGCCGAGTTTATGTAACGCCTCCTCCAGCGCCCCGGCGACCGTTGAT
Sensitivity of K. pneumoniae to antisense nucleic acid (growth inhibition, induced vs. uninduced): −
